In patent publication EP4789680A1, “NOVEL PACE4 INHIBITOR AND USE THEREOF IN ANTI-OSTEOARTHRITIS” (Inflamax Pharmaceuticals Limited, priority 2023, dated 2025):
*1 amine or outer side, *2 acyl side, *3 side chain or, on linkers, in order; H or OH if unused. Where no end group is shown, it is not given here. [ ]: non-standard residue; d: D form. Ala(piperidin-4-yl) = O=C([C@H](CC1CCN([*:3])CC1)N[*:1])[*:2]; Phe(4-guanidino) = N=C(N)Nc1ccc(C[C@H](N)C(=O)O)cc1

T1: PACE4 (UniProt P29122 150-969, limits assumed)
T1 sequence (looked up): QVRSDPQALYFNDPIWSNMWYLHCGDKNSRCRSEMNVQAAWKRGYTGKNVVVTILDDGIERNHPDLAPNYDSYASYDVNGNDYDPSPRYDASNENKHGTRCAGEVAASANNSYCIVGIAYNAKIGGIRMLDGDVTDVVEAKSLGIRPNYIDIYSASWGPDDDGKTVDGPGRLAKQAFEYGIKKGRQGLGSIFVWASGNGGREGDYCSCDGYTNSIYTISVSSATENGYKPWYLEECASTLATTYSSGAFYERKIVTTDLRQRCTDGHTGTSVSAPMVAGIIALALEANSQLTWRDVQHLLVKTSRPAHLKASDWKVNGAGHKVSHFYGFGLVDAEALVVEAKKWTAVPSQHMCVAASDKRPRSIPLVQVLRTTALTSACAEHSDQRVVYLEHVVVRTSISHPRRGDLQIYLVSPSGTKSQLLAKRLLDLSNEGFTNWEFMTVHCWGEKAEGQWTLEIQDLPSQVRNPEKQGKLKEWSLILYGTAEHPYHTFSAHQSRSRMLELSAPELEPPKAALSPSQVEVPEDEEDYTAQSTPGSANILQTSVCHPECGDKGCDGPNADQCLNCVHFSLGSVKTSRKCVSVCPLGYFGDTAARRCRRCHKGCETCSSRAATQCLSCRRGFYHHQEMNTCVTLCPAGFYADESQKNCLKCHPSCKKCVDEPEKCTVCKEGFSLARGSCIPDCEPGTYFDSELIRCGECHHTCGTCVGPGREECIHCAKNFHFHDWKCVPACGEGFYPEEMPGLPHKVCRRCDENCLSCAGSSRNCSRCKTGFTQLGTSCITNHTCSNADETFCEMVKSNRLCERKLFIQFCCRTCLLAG

B1: P-dR-R-A(4-Pip)-K-R-dT-NH2 (peptide)
peptide: P[dR]R[Ala(piperidin-4-yl)]KR[dT]-NH2
modifications: N-terminus assumed
SMILES: C[C@H](O)[C@@H](NC(=O)[C@H](CCCNC(=N)N)NC(=O)[C@H](CCCCN)NC(=O)[C@H](CC1CCNCC1)NC(=O)[C@H](CCCNC(=N)N)NC(=O)[C@@H](CCCNC(=N)N)NC(=O)[C@@H]1CCCN1)C(N)=O
B2: dP-dR-R-A(4-Pip)-K-R-dT-NH2 (peptide)
peptide: [dP][dR]R[Ala(piperidin-4-yl)]KR[dT]-NH2
modifications: N-terminus assumed
SMILES: C[C@H](O)[C@@H](NC(=O)[C@H](CCCNC(=N)N)NC(=O)[C@H](CCCCN)NC(=O)[C@H](CC1CCNCC1)NC(=O)[C@H](CCCNC(=N)N)NC(=O)[C@@H](CCCNC(=N)N)NC(=O)[C@H]1CCCN1)C(N)=O
B3: Ac-R-F-K-R-T-NH2 (peptide)
peptide: Ac-RFKRT-NH2
B4: Ac-R-F(4-Guan)-K-R-T-NH2 (peptide)
peptide: Ac-R[Phe(4-guanidino)]KRT-NH2
SMILES: CC(=O)N[C@@H](CCCNC(=N)N)C(=O)N[C@@H](Cc1ccc(NC(=N)N)cc1)C(=O)N[C@@H](CCCCN)C(=O)N[C@@H](CCCNC(=N)N)C(=O)N[C@H](C(N)=O)[C@@H](C)O
B5: Ac-R-F(4-Guan)-K-R-dT-NH2 (peptide)
peptide: Ac-R[Phe(4-guanidino)]KR[dT]-NH2
SMILES: CC(=O)N[C@@H](CCCNC(=N)N)C(=O)N[C@@H](Cc1ccc(NC(=N)N)cc1)C(=O)N[C@@H](CCCCN)C(=O)N[C@@H](CCCNC(=N)N)C(=O)N[C@@H](C(N)=O)[C@H](C)O
B6: Ac-R-R-F(4-Guan)-K-R-dT-NH2 (peptide)
peptide: Ac-RR[Phe(4-guanidino)]KR[dT]-NH2
SMILES: CC(=O)N[C@@H](CCCNC(=N)N)C(=O)N[C@@H](CCCNC(=N)N)C(=O)N[C@@H](Cc1ccc(NC(=N)N)cc1)C(=O)N[C@@H](CCCCN)C(=O)N[C@@H](CCCNC(=N)N)C(=O)N[C@@H](C(N)=O)[C@H](C)O
B7: Ac-dR-R-F(4-Guan)-K-R-dT-NH2 (peptide)
peptide: Ac-[dR]R[Phe(4-guanidino)]KR[dT]-NH2
SMILES: CC(=O)N[C@H](CCCNC(=N)N)C(=O)N[C@@H](CCCNC(=N)N)C(=O)N[C@@H](Cc1ccc(NC(=N)N)cc1)C(=O)N[C@@H](CCCCN)C(=O)N[C@@H](CCCNC(=N)N)C(=O)N[C@@H](C(N)=O)[C@H](C)O
B8: P-dR-R-F(4-Guan)-K-R-dT-NH2 (peptide)
peptide: P[dR]R[Phe(4-guanidino)]KR[dT]-NH2
modifications: N-terminus assumed
SMILES: C[C@H](O)[C@@H](NC(=O)[C@H](CCCNC(=N)N)NC(=O)[C@H](CCCCN)NC(=O)[C@H](Cc1ccc(NC(=N)N)cc1)NC(=O)[C@H](CCCNC(=N)N)NC(=O)[C@@H](CCCNC(=N)N)NC(=O)[C@@H]1CCCN1)C(N)=O
B9: dP-dR-R-F(4-Guan)-K-R-dT-NH2 (peptide)
peptide: [dP][dR]R[Phe(4-guanidino)]KR[dT]-NH2
modifications: N-terminus assumed
SMILES: C[C@H](O)[C@@H](NC(=O)[C@H](CCCNC(=N)N)NC(=O)[C@H](CCCCN)NC(=O)[C@H](Cc1ccc(NC(=N)N)cc1)NC(=O)[C@H](CCCNC(=N)N)NC(=O)[C@@H](CCCNC(=N)N)NC(=O)[C@H]1CCCN1)C(N)=O

Target: T1, PACE4
Experiment: cell-based or functional assay

Row | Binder | IC50 (µM), PACE4 enzyme inhibition, fluorogenic substrate pyroGlu-Arg-Val-Lys-Arg-methyl-coumaryl-7-amide [µM]
1 | B1 | 0.07
2 | B2 | 0.08
3 | B3 | 2
4 | B4 | 0.023
5 | B5 | 0.021
6 | B6 | 0.018
7 | B7 | 0.015
8 | B8 | 0.025
9 | B9 | 0.034
